{"source": "the PETadex activity labels (doi:10.1038/s41467-023-40233-w)", "proteins": {"B1": {"name": "unnamed (protein)", "chain": "MLSFLRSTGRPERRRASLPALLLFTAALVASGLTAAPAAQAADNPYQRGPDPTNASIEAATGPFAVGTQPIVGASGFGGGQIYYPTDTSQTYGAVVIVPGFISVWAQLNWLGPRLASQGFVVIGIETSVITDLPDPRGDQALAALDWATTRSPVASRIDRTRLAAAGWSMGGGGLRRAALQRPSLKAIVGMAPWNGERNWSAVTVPTLFFGGSSDAVASPNDHAKPFYNSITRAEKDYIELRNADHFFPNSANTTMAKYFISWLKRWVDNDTRYTQFLCPGPSTGLFAPVSASMNTCPF"}, "B2": {"name": "unnamed (protein)", "chain": "B1 chain with R242C, N250T, S291C"}, "B3": {"name": "unnamed (protein)", "chain": "B1 chain with N109A, N250T"}, "B4": {"name": "unnamed (protein)", "chain": "B1 chain with N250T, A252N"}, "B5": {"name": "unnamed (protein)", "chain": "B1 chain with T86R, N250T"}, "B6": {"name": "unnamed (protein)", "chain": "B1 chain with Q107S, N250T"}, "B7": {"name": "unnamed (protein)", "chain": "B1 chain with V129T, L180C, R198K, A202C, R242C, N250T, S291C"}, "B8": {"name": "unnamed (protein)", "chain": "B1 chain with R157A, N250T"}, "B9": {"name": "unnamed (protein)", "chain": "B1 chain with G76C, A143C, N250T"}, "B10": {"name": "unnamed (protein)", "chain": "B1 chain with R233A, N250T"}, "B11": {"name": "unnamed (protein)", "chain": "B1 chain with A192T, N250T"}, "B12": {"name": "unnamed (protein)", "chain": "B1 chain with R198K, N250T"}, "B13": {"name": "unnamed (protein)", "chain": "B1 chain with P136S, N250T"}, "B14": {"name": "unnamed (protein)", "chain": "B1 chain with L133Y, N250T"}, "B15": {"name": "unnamed (protein)", "chain": "B1 chain with G196L, N250T"}, "B16": {"name": "unnamed (protein)", "chain": "B1 chain with A155R, L180C, A202C, R242C, N250T, S291C"}}, "note": "Changes are numbered by the printed parent chain."}
{"substrate": "pcPET (post-consumer)", "experiment": "Proxy for plastic degradation [Released monomer concentration (HPLC/LC-MS) (TPA+MHET+BHET)]", "details": "pH 9; 40 °C; 24 h", "units": {"Proxy for plastic degradation": "µM"}}
{"protein": "B1", "Proxy for plastic degradation": 10}
{"protein": "B2", "Proxy for plastic degradation": 890}
{"protein": "B3", "Proxy for plastic degradation": 720}
{"protein": "B4", "Proxy for plastic degradation": 530}
{"protein": "B5", "Proxy for plastic degradation": 485}
{"protein": "B6", "Proxy for plastic degradation": 620}
{"protein": "B7", "Proxy for plastic degradation": 1200}
{"protein": "B8", "Proxy for plastic degradation": 225}
{"protein": "B9", "Proxy for plastic degradation": 295}
{"protein": "B10", "Proxy for plastic degradation": 715}
{"protein": "B11", "Proxy for plastic degradation": 495}
{"protein": "B12", "Proxy for plastic degradation": 950}
{"protein": "B13", "Proxy for plastic degradation": 680}
{"protein": "B14", "Proxy for plastic degradation": 405}
{"protein": "B15", "Proxy for plastic degradation": 520}
{"protein": "B16", "Proxy for plastic degradation": 948}
{"substrate": "pcPET (post-consumer)", "experiment": "Proxy for plastic degradation [Released monomer concentration (HPLC/LC-MS) (TPA+MHET+BHET)]", "details": "pH 9; 60 °C; 6 h", "units": {"Proxy for plastic degradation": "µM"}}
{"protein": "B7", "Proxy for plastic degradation": 1020}
{"protein": "B16", "Proxy for plastic degradation": 360}
